Data taken from patent US11332546B2, “Protease inhibitory antibodies and methods of use thereof” (The Regents of The University of California, priority 2019, dated 2022).
Where two headings read alike, the source gives them in different places.

T1: MMP-1 (Homo sapiens, UniProt P03956)
T1 construct: purchased AnaSpec
T1 sequence (P03956 100-469): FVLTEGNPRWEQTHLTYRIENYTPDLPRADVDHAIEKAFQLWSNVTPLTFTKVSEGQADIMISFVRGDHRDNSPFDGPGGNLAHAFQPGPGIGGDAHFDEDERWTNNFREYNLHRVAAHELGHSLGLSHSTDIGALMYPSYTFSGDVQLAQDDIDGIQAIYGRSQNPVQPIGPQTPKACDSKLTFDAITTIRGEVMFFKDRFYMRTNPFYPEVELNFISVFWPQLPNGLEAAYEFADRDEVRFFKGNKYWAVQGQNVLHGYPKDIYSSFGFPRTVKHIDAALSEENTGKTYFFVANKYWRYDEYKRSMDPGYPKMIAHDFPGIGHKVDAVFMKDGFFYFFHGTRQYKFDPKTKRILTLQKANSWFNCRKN

T2: MMP-7 (Homo sapiens, UniProt P09237)
T2 construct: purchased AnaSpec
T2 sequence (P09237 95-267): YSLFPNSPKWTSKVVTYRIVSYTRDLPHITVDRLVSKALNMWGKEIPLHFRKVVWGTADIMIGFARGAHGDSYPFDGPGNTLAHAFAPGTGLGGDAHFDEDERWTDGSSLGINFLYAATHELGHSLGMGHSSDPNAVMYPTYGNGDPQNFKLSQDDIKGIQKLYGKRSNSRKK

B1: Fab LG4: anti-MMP-12 antibody clone; VL SEQ ID NO:112, VH SEQ ID NO:114, CDR-H3 SEQ ID NO:117 (antibody, V domains shown)
VH: EVQLVESGGGLVQPGGSLRLSCAASGFNLYYSYMHWVRQAPGKGLEWVASISSYYGYTSYADSVKGRFTISADTSKNTAYLQMNSLRAEDTAVYYCARSPIVYYELFMFIDMGAQGWKYGMDYWGQGTLVTVSSAS
VL: DIQMTQSPSSLSASVGDRVTITCRASQSVSSAVAWYQQKPGKAPKLLIYSASSLYSGVPSRFSGSRSGTDFTLTISSLQPEDFATYYCQQTFYPFTFGQGTKVEIKR
B2: Fab LH6: anti-MMP-12 antibody clone; VL SEQ ID NO:118, VH SEQ ID NO:120, CDR-H3 SEQ ID NO:123 (antibody, V domains shown)
VH: EVQLVESGGGLVQPGGSLRLSCAASGFNLSYSYMHWVRQAPGKGLEWVASIYPSYGSTYYADSVKGRFTISADTSKNTAYLQMNSLRAEDTAVYYCARDLEESLPKRARTAVSKELESVPYVMDYWGQGTLVTVSSAS
VL: DIQMTQSPSSLSASVGDRVTITCRASQSVSSAVAWYQQKPGKAPKLLIYSASSLYSGVPSRFSGSRSGTDFTLTISSLQPEDFATYYCQQSSHYASPPITFGQGTKVEIKR

Tests used:
[1] = target: T3, cdMMP-12 mutant D4 (Homo sapiens, UniProt P39900, A167E/A173P/A252Q/H206S/I245T/K233R/M156E/N119Q/N126H/R135E/T215V/V161I/Y113D/Y132K); assay: FRET peptide inhibition assay, cdMMP-12 D4; assay type: biochemical; settings: cdMMP-12 D4, FRET peptide, 31-500 nM Fab
T3 construct: hexahistidine (C); made in house; host or cells: E. coli BL21, pET32b (cytoplasmic, soluble fraction)
Method: (§1) FRET peptide inhibition assays In 96-well assay plates (Corning), 60/250/350/10/10/30 nM of (cd)MMP-1/-7/-9/-12 D4/-12 wt/-14 were preincubated with 1 nM-1 μM purified Fabs for 30 min at room temperature then 1 μM substrate M-2350 (Bachem) was added. Generated fluorescent signals (λEx=328 nm, λEm=393 nm) were monitored at 37° C. to measure the initial velocities. To calculate inhibition constants (KIs), data were fit with the equations for slow tight-binding inhibitors. The inhibition type of the Fabs was determined using the initial velocities of cdMMP-12 D4 as a function of substrate concentration (250-2000 nM) at various Fab concentrations (31-500 nM). The values of Vmax and Km were derived from linearization in accordance with the Lineweaver-Burk equation.

[2] = target: T4, cdMMP-12 wt (Homo sapiens, UniProt P39900); assay: FRET peptide inhibition assay, cdMMP-12 wt; assay type: biochemical; settings: toward cdMMP-12 wild type
T4 construct: hexahistidine (C); made in house; host or cells: E. coli BL21 (pET32b, cytoplasmic)
Method: as §1

[3] = target: T4, cdMMP-12 wt; assay: Fibronectin proteolysis inhibition, cdMMP-12 wt (western blot); assay type: biochemical; settings: for Fibronectin remaining after cdMMP-12 wt hydrolysis: 6 μM Fab, 350 nM wt cdMMP-12, 200 nM fibronectin, 37° C.; for Inhibition Fibronectin IC50: toward cdMMP-12 wild type, 200 nM enzyme, 200 nM fibronectin
Method: Inhibition tests with macromolecular substrates 10 μg/mL FITC-conjugated elastin (AnaSpec) was incubated with 7 nM cdMMP-12 D4/wt and 2-2000 nM purified Fab in 50 mM Tris-HCl, 150 mM NaCl, 5 mM CaCl2), 100 μM ZnCl2 pH 7.5. Generated fluorescent signals were measured at 12 h with λEx of 490 nm and λEm of 520 nm. […] The samples were separated on 5% non-reducing SDS-PAGE and analyzed by western blotting with anti-Fibronectin antibody (Abcam) and chemiluminescent substrate (Thermo Scientific). […] Assays without cdMMP-12s or Fabs were performed as controls.

[4] = target: cdMMP-9; assay: Bio-layer interferometry on cdMMP-9; assay type: binding; settings: for Kd: read-out: KD toward cdMMP-9
[5] = target: T3, cdMMP-12 mutant D4; assay: Proteolytic stability of Fabs with cdMMP-12 D4; assay type: physicochemical; settings: 2 μM Fab, 2 μM cdMMP-12 D4, 4 h, 37° C.
Method: (§2) Proteolytic stability tests 2 μM purified Fabs were incubated with 2 μM cdMMP-12 wt/D4 in 50 mM HEPES, 150 mM NaCl pH 7.5 at 37° C. for 4 h. Samples were analyzed by using 12% non-reducing SDS-PAGE and stained with Coomassie blue. Densitometric interpretation was conducted using a ChemiDoc imager (Bio-Rad).

[6] = target: T4, cdMMP-12 wt; assay: Proteolytic stability of Fabs with cdMMP-12 wt; assay type: physicochemical; settings: 2 μM Fab, 2 μM cdMMP-12 wt, 4 h, 37° C.
Method: as §2

[7] = target: T4, cdMMP-12 wt; assay: Inhibition of proteolysis of modified TEM-1 ([…]) by cdMMP-12 wt; assay type: biochemical; settings: 10 μM Fab, 700 nM cdMMP-12 wt, 250 nM modified TEM-1, 4 h
Method: Inhibition tests with macromolecular substrates 10 μg/mL FITC-conjugated elastin (AnaSpec) was incubated with 7 nM cdMMP-12 D4/wt and 2-2000 nM purified Fab in 50 mM Tris-HCl, 150 mM NaCl, 5 mM CaCl2), 100 μM ZnCl2 pH 7.5. Generated fluorescent signals were measured at 12 h with λEx of 490 nm and λEm of 520 nm. For inhibition assays on fibronectin, 200 nM fibronectin (Corning) was incubated with 200-350 nM cdMMP-12 wt and 2 μM GM6001 or 0.1-6 μM Fabs in 50 mM HEPES, 150 mM NaCl pH 7.5 at 37° C. for 2-4 h. The samples were separated on 5% non-reducing SDS-PAGE and analyzed by western blotting with anti-Fibronectin antibody (Abcam) and chemiluminescent substrate (Thermo Scientific). For inhibition assays on modified TEM-1 carrying cleavable sequence ([…] (SEQ ID NO:134)) and a N-terminal HA tag, 250 nM modified TEM-1 was incubated with 700 nM cdMMP-12 wt and 10 μM Fabs in 50 mM HEPES, 150 mM NaCl pH 7.5 at 37° C. for 4 h. The samples were separated on 12% non-reducing SDS-PAGE, and the modified TEM-1 was visualized by western blotting using anti-HA antibody (Invitrogen) and chemiluminescent substrate. Assays without cdMMP-12s or Fabs were performed as controls.

[8] = target: T5, cdMMP-14 (Homo sapiens, UniProt P50281); assay: Bio-layer interferometry on cdMMP-14; assay type: binding; set-up: human MMP-14 (residue 114-320); hexahistidine (C); made in house; host or cells: E. coli periplasm
[9] = target: T1, MMP-1; assay: FRET peptide inhibition assay, MMP-1; assay type: biochemical; settings: listed as LH6
Method: as §1

[10] = target: T2, MMP-7; assay: FRET peptide inhibition assay, MMP-7; assay type: biochemical; settings: listed as LH6
Method: as §1

[11] = tested on: cdMMP-9; assay: FRET peptide inhibition assay, cdMMP-9 (Example 2); assay type: biochemical
Method: as §1

[12] = target: T5, cdMMP-14; assay: FRET peptide inhibition assay, cdMMP-14 (Example 2); assay type: biochemical; set-up: human MMP-14 (residue 114-320); hexahistidine (C); made in house; host or cells: E. coli periplasm
Method: as §1

T3 sequence (P39900 106-263 Y113D/N119Q/N126H/Y132K/R135E/M156E/V161I/A167E/A173P/H206S/T215V/K233R/I245T/A252Q): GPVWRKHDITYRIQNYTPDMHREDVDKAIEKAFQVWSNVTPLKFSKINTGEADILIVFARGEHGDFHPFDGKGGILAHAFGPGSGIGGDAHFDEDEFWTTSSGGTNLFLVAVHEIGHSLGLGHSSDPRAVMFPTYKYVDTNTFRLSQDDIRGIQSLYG
T4 sequence (P39900 106-263): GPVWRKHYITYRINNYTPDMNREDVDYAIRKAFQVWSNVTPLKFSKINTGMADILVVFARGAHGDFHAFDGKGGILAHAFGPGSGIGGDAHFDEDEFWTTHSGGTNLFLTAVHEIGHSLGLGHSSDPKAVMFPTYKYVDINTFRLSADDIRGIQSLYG
Sequence of cdMMP-9 (P14780 with tags, fused parts or gaps DEL216-390 limits assumed): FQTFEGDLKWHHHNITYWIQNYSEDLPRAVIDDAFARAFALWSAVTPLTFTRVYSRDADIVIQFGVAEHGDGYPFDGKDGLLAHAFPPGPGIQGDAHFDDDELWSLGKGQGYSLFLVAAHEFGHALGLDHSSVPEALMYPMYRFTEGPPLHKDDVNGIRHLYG

Molecule	Type of inhibition (Lineweaver-Burk) [1]	Inhibition FRET peptide ([2]; listed as LG4)	Fibronectin remaining after cdMMP-12 wt hydrolysis [3]	Inhibition Fibronectin IC50 [3]	Kd ([4]; listed as LG4)	Degradation of Fab by cdMMP-12 D4 [5]	Fab remained intact after exposure to cdMMP-12 wt [6]	Inhibition of modified TEM-1 (PLGLEEAK) proteolysis [7]	Kd ([8]; listed as LG4, read-out: KD toward cdMMP-14)	Inhibition FRET peptide ([2]; listed as LH6)	Inhibition of MMP-1 (selectivity) [9]	Inhibition of MMP-7 (selectivity) [10]	K1 fold, cdMMP-9 compared with cdMMP-12 mutant D4 [11]	Ki ([11]; FRET peptide, read-out: K1 toward cdMMP-9)	KD fold, cdMMP-9 compared with cdMMP-12 wt [4]	Kd [4]	K1 fold, cdMMP-14 compared with cdMMP-12 mutant D4 [12]	KD fold, cdMMP-14 compared with cdMMP-12 wt [8]
B1	substrate competitive manner	non-	significant amounts of fibronectin remained	Inhib.	0.72 µM	no significant degradation	54%	significant inhibition	~0.7 µM									
B2	substrate competitive manner		significant amounts of fibronectin remained	Inhib.		no significant degradation	56%			non-	did not inhibit and non-	did not inhibit and non-	(16-fold)	1.5 µM	(2.2-fold),	0.95 µM	(52-fold)	(1.1-fold),
